Source: patent US20160340704A1, “METHOD OF MAKING A BENZYLISOQUINOLINE ALKALOID (BIA) METABOLITE, ENZYMES THEREFORE” (VALORBEC SOCIÉTÉ EN COMMANDITE, priority 2014, published 2016)

Columns and labels:
acetylcholinesterase = conditions: cited from earlier work
scoulerine [1] = assay: CYP719 substrate affinity test on scoulerine in GC1333 (integrated PsCPR): Ring A / Ring B closure; type: cell-based, Saccharomyces cerevisiae; conditions: single CYP719 with PsCPR, 16 hours
Description: To broadly identify CYP719 activities on BIAs, a substrate affinity test was performed with the protoberberine BIA scoulerine. CYP719s have been described to form methylenedioxy bridges on BIAs from an alcohol group and a methyl group on adjacent carbons. Two different rings can be made on scoulerine, which can be called “Ring A” and “Ring B”, with the BIA products being called “nandinine” and “cheilanthifoline”, respectively (see FIG. 19). CYP719-catalyzed formation of both Ring A and Ring B of scoulerine (“Ring A-closing activity” and “Ring B-closing activity”) has been identified and published. Certain CYP719 enzymes included in the affinity tests have published ring A and Ring B activities.
(§1) Plasmids harboring CYP719s were transformed into either GC1333 containing an integrated PsCPR (FIG. 10A) or GC1316 containing an integrated PsCPR and an integrated PsCFS (FIG. 10B). Strain GC1333, harboring PsCPR integrated into the chromosome, was transformed with pBOT plasmids, with GFP removed, harboring individual CYP719s (CYP719 EX41-105). (See Tables 7-8 below presenting the nature and activity of these CYP719s).
The resulting CYP719-harboring strains (strains SF41-105) were supplemented with scoulerine. After 16 hours, BIAs were extracted and the molar ratio of scoulerine to downstream BIAs was calculated (FIG. 10A).

(S)-scoulerine = assay: TNMT N-methylation test: GCY1101 versus GCY1127 fed (S)-scoulerine; type: cell-based, Saccharomyces cerevisiae
Description: When cells of the Block 2-Block 3 double integrant were incubated with (S)-scoulerine, compounds with exact masses of 342.1710 m/z and 340.1548 m/z were detected in addition to expected sanguinarine pathway intermediates. These exact masses, and their CIDs, correspond to N-methylscoulerine and N-methylcheilanthifoline, respectively^36. […] To determine whether TNMT was responsible for the N-methylation of cheilanthifoline and scoulerine, the Block 2 integrant strain harbouring CPR on a plasmid (strain GCY1101) was compared with the Block 2 integrant strain harbouring both CPR and TNMT on a plasmid (strain GCY1127).
Because the applicants lacked standards to quantify the N-methylated products and since the three compounds are similar in structure, they assumed equal ionization efficiency and estimated their relative proportions by peak area: when strain GCY1127 is fed (S)-scoulerine, the expected product N-methylstylopine is 33%, while N-methylscoulerine is 7% and N-methylcheilanthifoline is 60% (FIG. 8B).

[2] = Microsomal cytochrome P450 enzyme assay of PsCFS and PsSPSΔN incubated with (S)-scoulerine; type: biochemical, Papaver somniferum; conditions: microsomes with PsCPR; 125 μM (S)-scoulerine, 500 μM NADPH
Description: The pESC-CPR vector encoding opium poppy cytochrome P450 reductase (PsCPR) fused to a c-Myc tag was used for the heterologous expression of plant proteins in S. cerevisiae^25. The amplicon was inserted into NotI and SpeI restriction sites of pESC-CPR in-frame with a FLAG-tag sequence yielding pESC-CPR/CFS. […]
Analysis of enzyme assays was performed using an Agilent™ 1200 liquid chromatography system equipped with a 6410 triple-quadrupole mass spectrometer (Agilent Technologies; Santa Clara, Calif.). […] Scoulerine, cheilanthifoline, and stylopine were detected in multiple reaction monitoring (MRM) mode using a collision energy of 25 eV and monitored transitions of m/z 328→178, 326→178 and 324→176, respectively.
Constructs for the heterologous expression of PsCFS and PsSPS in S. cerevisiae were assembled in a vector harbouring PsCPR (Table 1 above). […] No conversion of scoulerine was detected in the negative control. […]

scoulerine [3] = assay: CYP719s in GC1316 (integrated PsCPR and PsCFS) supplemented with scoulerine; type: cell-based, Saccharomyces cerevisiae
Text: as §1
Plasmids harboring individual CYP719s were transformed into strain GC1316, which harbored PsCPR and PsCFS integrated into the genome. Strains were supplemented with scoulerine and after 16 hours total BIAs were extracted and the molar ratio was compared (FIG. 10B). The four possible BIAs that could be extracted were scoulerine, the single Ring A product nandinine, the single Ring B product cheilanthifoline, and the double Ring A, Ring B product stylopine.

nandinine = assay: CYP719 Ring B closure of nandinine to stylopine in GC1333; type: cell-based, Saccharomyces cerevisiae; conditions: nandinine generated in vivo from scoulerine, in TE
Description: FIG. 11A-B: showing conversion of (S)-cheilanthifoline (FIG. 11A) or (S)-nandinine (FIG. 11B) to (S)-stylopine by purchased CYP719s. Plasmids harboring CYP719s were transformed into GC1333 containing an integrated PsCPR. Strains were incubated with the appropriate BIA overnight, and then total BIAs were extracted and total molar ratios were compared. PsSPSΔN was used as a control.
The 10 CYP719s with 95% activity on Ring A of scoulerine and the 10 CYP719s with activity on Ring B of scoulerine were tested for activity on cheilanthifoline and nandinine, respectively, in order to generate a branched stylopine synthesis pathway. […] CYP719s PsCFS and EX101, capable of converting >98% of scoulerine to cheilanthifoline and nandinine, respectively, were incubated with scoulerine. After 16 h, cells were pelleted and the supernatant fraction was collected. The supernatant was then applied to fresh yeast strains in order to supplement them with either TE containing nandinine or cheilanthifoline as necessary.

COc1cc2c(cc1O)[C@@H]1Cc3ccc(OC)c(O)c3C[N@+]1(C)CC2 [N-methylscoulerine]
described activity (acetylcholinesterase): acetylcholinesterase inhibitor

B1: EX46: CYP719 from Corydalis cheilanthifolia, SEQ ID NO: 325 (protein, listed as Corydalis cheilanthifolia)
chain: MVNAVAEILTEKPWLLPATLLAVIAIAKFFLGKSSTMKWPIGPKTLPIIGNMHQLGGTDLQVVLANLAKTYGTIMTIWVGSWRPMIVLSDIEKAWEVLVNKSSDYSGRAMPEITEIISAKGKTISTSDSGPHWSNLRKGLQNVALSPHNIAAQSRFQESDITKMIKTLKQEAASNNGIVQPLDHLKKSTVRLISRLIFGQDFDDDEYVEAMHLAVEELIRVSGYARLAEAFYYAKYLPSHKRAVSEVWEANRRVKRIVKPRLSANPPPNCYLHFLSSQDYSEEMIIFAIFEAYLLGVDSTSSTTAWALGFLIREPKVQERLYQELKNCAGENGLIKVEDINKLPYLQAVLKETMRMKPIAPLAIPHKAVRETSLAGNKVEPGTRVMVNLYAIHHNPKVWIDPHKFKPERFLQGEENGGGNLKLMEQSLLPFSAGMRTCAGMELGKLQFGFSLANLVNAFQWDCAKKGMFPDMSDLLGFVLLMKTPLQAKIVPRGSPSINGY
conversion of scoulerine to the Ring A product nandinine (Ring A closure) (scoulerine [1]): 66%

B2: TNMT: Papaver somniferum tetrahydroprotoberberine cis-N-methyltransferase, SEQ ID NO: 58 (protein, listed as Papaver somniferum)
chain: MGSIDEVKKESAGETLGRLLKGEIKDEELKKLIKFQFEKRLQWGYKSSHQEQLSFNLDFIKSLKKMEMSGEIETMNKETYELPSEFLEAVFGKTVKQSMCYFTHESATIDEAEEAAHELYCERAQIKDGQTVLDIGCGQGGLVLYIAQKYKNCHVTGLTNSKAQVNYLLKQAEKLGLTNVDAILADVTQYESDKTYDRLLMIEAIEHMKNLQLFMKKLSTWMTKESLLFVDHVCHKTFAHFFEAVDEDDWYSGFIFPPGCATILAANSLLYFQDDVSVVDHWVVNGMHMARSVDIWRKALDKNMEAAKEILLPGLGGSHETVNGVVTHIRTFCMGGYEQFSMNNGDEWMVAQLLFKKK
substrate acceptance for N-methylation ((S)-scoulerine): accepts both scoulerine and cheilanthifoline as substrates

B3: EX61: CYP719 from Eschscholzia californica, Q50LH3.1, SEQ ID NO: 340 (protein, listed as Eschscholzia californica)
chain: MEEMKILMMNNPWILTATATTLLISIFLFFTRKSSKMVWPAGPKTLPIIGNMHLLGGTALQVVLHNLAKVHGSVMTIWIGSWRPVIVVSDIERAWEVLVNKSSDYSARDMPDITKIISADWKTISTSDSGPHWTNLRKGLQNVALSPHNLAAQFQFQEKDMTKMIQTLQEEARNNNGIVKPLDHMKKATLRLISRLVFGQDFNNDKYVDDMHLAIEELIRVSGYARLAEAFYYAKYLPSHKKAVREVEEAQRRVQNLVSPFLSLNPPTNTYLHFLRSQKYDDEVIIFAIFEAYLLGVDSTSLTTAWALAFLIRESNVQEKLYQELESFASKMDRKILKVEDINKLQYLQAVIKETMRMKPIAPLAIPHKACRDTSLMGKKIDKGTRVMVNIYALHHNKNVFNDPFKFMPERFMKVDSQDANGKAMEQSLLPFSAGMRICAGMELGKLQFSFALANLAYAFKWSCVADGVLPDMSDQLGFVLLMKTPLEARINRRN
conversion of scoulerine to the Ring A product nandinine (Ring A closure) (scoulerine [1]): 90%

B4: EX94: N-truncated Papaver somniferum stylopine synthase (CYP719A20) with lettuce germacrene A oxidase N-terminal domain, SEQ ID NO: 373 (protein, listed as Papaver somniferum)
chain: MELSITTSIALATIVFFLYKLATRPKSTKKQLPEASRLPIIGHKRKKSSTMVWPTGPKTLPIIGNMHVLGGTALQVVLHNLAKIHGNVMTIWIGSWRPVIVVSDIDRAWEVLVNKSSDYSARDMPEITKIISADWKTISTSDSGPGWSNLRKGLQNVALSPHNLAAQSQFQEKDITKMIQSLKKEAASNNGIVKPIDHLKKATLRLISRLIFGQDFDDDKYVDDMHHAIEELIRVSGYAQLAEAFYYAKYLPSHKKAVRDVEEANQRVKKLVRPFLSLNPPTNTYLHFLNSQKYDEEVIIFAIFEAYLLGVDSTSLTTAWALAFLIREPVVQDKLYQELKNLTAKNDCEIVKVEDLNKLQYLQAVLKETMRMKPIAPLAIPHKACRDTSLKGNKIDQGTQVMVNIYALHHNEKVWKEPFKFMPERFLQTQDVVNGKGMEQSLLPFSAGMRICAGMELGKLQFSFSLANLVNAFEWSCVSDGVLPDMSDQLGFVLLMKTPLQARIVPRV
conversion of (S)-scoulerine by microsomal proteins (LC-MS products) [2]: converted to cheilanthifoline and stylopine

B5: EX84: Papaver somniferum cheilanthifoline synthase, ADB89213.1, SEQ ID NO: 363 (protein, listed as Papaver somniferum)
chain: MEVTFWLITCGVVVAFALAKLLFGKKSSMSTMEWPSGPKTLPIIGNLHQLGGEAFHVCLANLAKVYGGVFTIWVGSWRPFIVISDVDKAWEVLVNKSSDYSARDMPDITKIISANWKNISHGDSGPFWHNLRKGLQGVALTPFNVASQYHLQERDMQNLIKSMKKKASQKNGILKPLDYVKEETVRLLSRLIFSQEFVDEDFVVGMHQALDELVSISGYASLADAFKFCENLPSHKKTIRAVHAIKIRFDNLIRPHIVSNPPTNTYLHFLLSQDFSEDVIISAILEVYDLGVDSTASTTVWALTFLVREQKIQEKLYREINNVTGGKRPVKVEDLNKLPYLQAVMKETMRMKPIAPMAIPHKASKDTSLMGKKINKGTVVMVNLYAIHHNPAVFPEPYKFMPERFLKDANSDGSLGDIKKMESSLLAFSAGMRICAGMELGKLQLAFGLASLVNEFKWDCVAEGKLPDLSEEHCFILLMKNPLEAKITPRIH
conversion of scoulerine to cheilanthifoline (scoulerine [3]; PsCFS alone in GC1316): 100% | activity on nandinine (scoulerine [3]; inferred from residual nandinine in GC1316 strains): little to no activity on nandinine | conversion of nandinine to stylopine (nandinine): 12% | conversion of (S)-scoulerine by microsomal proteins (LC-MS products) [2]: converted to cheilanthifoline
